T1: FcγRIIB-Fc fusion protein, soluble dimeric: extracellular domain of FcγRIIB fused to the hinge-CH2-CH3 domain … (human, UniProt P31994 43-217, limits assumed)
T1 construct: extracellular domain; also called FcRIIB-Fc; FcR2B; not shown: human IgG2 hinge-CH2-CH3
T1 sequence (looked up): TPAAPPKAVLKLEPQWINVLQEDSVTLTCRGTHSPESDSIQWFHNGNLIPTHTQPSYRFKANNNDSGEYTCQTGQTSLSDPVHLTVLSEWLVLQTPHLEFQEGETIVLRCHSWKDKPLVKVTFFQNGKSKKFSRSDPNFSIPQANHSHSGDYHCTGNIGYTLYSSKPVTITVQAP

T2: 2bfcagl (FcγRIIB-Fc) (UniProt P31994 43-217, limits assumed)
T2 construct: label not explained; may be m4 or an aglycosylated form of it; not shown: Fc part; label fcagl is not explained
T2 sequence (looked up): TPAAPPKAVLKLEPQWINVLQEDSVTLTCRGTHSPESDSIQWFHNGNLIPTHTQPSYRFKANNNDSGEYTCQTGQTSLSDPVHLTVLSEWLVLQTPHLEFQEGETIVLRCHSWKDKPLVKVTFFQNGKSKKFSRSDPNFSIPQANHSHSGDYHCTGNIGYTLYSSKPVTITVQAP

T3: 2aH131Fcagl (FcγRIIA 131H-Fc) (UniProt P12318 34-217, limits assumed)
T3 construct: also called FcγRIIA H131; not shown: Fc part; label Fcagl is not explained
T3 sequence (looked up): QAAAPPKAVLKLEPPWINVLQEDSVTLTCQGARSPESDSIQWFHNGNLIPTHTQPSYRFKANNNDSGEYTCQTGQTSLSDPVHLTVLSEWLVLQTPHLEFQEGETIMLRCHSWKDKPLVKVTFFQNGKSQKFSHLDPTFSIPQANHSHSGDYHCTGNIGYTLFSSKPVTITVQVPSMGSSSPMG

T4: 2aR131Fcagl (FcγRIIA 131R-Fc) (UniProt P12318 34-217, limits assumed)
T4 construct: not shown: Fc part; label Fcagl is not explained
T4 sequence (looked up): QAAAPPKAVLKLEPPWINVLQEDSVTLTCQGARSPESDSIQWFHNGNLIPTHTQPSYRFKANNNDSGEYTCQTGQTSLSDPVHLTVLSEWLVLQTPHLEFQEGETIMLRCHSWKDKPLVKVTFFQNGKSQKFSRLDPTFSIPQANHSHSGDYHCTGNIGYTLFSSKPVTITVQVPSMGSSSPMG

B1: ch4-4-20 K288M, K334E (antibody)
chain 1: not shown
chain 2: DVVMTQTPLSLPVSLGDQASISCRSSQSLVHSNGNTYLRWYLQKPGQSPKVLIYKVSNRFSGVPDRFSGSGSGTDFTLKISRVEAEDLGVYFCSQSTHVPWTFGGGTKLEIKRTVAAPSVFIFPPSDEQLKSGTASVVCLLNNFYPREAKVQWKVDNALQSGNSQESVTEQDSKDSTYSLSSTLTLSKADYEKHKVYACEVTHQGLSSPVTKSFNRGEC
B2: ch4-4-20 Mut23 (antibody)
chain 1: not shown
chain 2: DVVMTQTPLSLPVSLGDQASISCRSSQSLVHSNGNTYLRWYLQKPGQSPKVLIYKVSNRFSGVPDRFSGSGSGTDFTLKISRVEAEDLGVYFCSQSTHVPWTFGGGTKLEIKRTVAAPSVFIFPPSDEQLKSGTASVVCLLNNFYPREAKVQWKVDNALQSGNSQESVTEQDSKDSTYSLSSTLTLSKADYEKHKVYACEVTHQGLSSPVTKSFNRGEC
B3: ch4-4-20 S298N, K360R, N361D (antibody)
chain: EPKSCDKTHTCPPCPAPELLGGPSVFLFPPKPKDTLMISRTPEVTCVVVDVSHEDPEVKFNWYVDGVEVHNAKTKPREEQYNNTYRVVSVLTVLHQDWLNGKEYKCKVSNKALPAPIEKTISKAKGQPREPQVYTLPPSREEMTRDQVSLTCLVKGFYPSDIAVEWESNGQPENNYKTTPPVLDSDGSFFLYSKLTVDKSRWQQGNVFSCSVMHEALHNHYTQKSLSLSPGK
B4: ch-mAb 2B6 MgFc31/60 (P247L, D270E, N421K) (antibody)
chain: ASTKGPSVFPLAPSSKSTSGGTAALGCLVKDYFPEPVTVSWNSGALTSGVHTFPAVLQSSGLYSLSSVVTVPSSSLGTQTYICNVNHKPSNTKVDKKVEPKSCDKTHTCPPCPAPELLGGPSVFLFPPKLKDTLMISRTPEVTCVVVDVSHEEPEVKFNWYVDGVEVHNAKTKPREEQYNSTYRVVSVLTVLHQDWLNGKEYKCKVSNKALPAPIEKTISKAKGQPREPQVYTLPPSRDELTKNQVSLTCLVKGFYPSDIAVEWESNGQPENNYKTTPPVLDSDGSFFLYSKLTVDKSRWQQGKVFSCSVMHEALHNHYTQKSLSLSPGK
B5: ch-mAb 2B6 MgFc59/60 (K370E, P396L with D270E) (antibody)
chain: ASTKGPSVFPLAPSSKSTSGGTAALGCLVKDYFPEPVTVSWNSGALTSGVHTFPAVLQSSGLYSLSSVVTVPSSSLGTQTYICNVNHKPSNTKVDKKVEPKSCDKTHTCPPCPAPELLGGPSVFLFPPKPKDTLMISRTPEVTCVVVDVSHEEPEVKFNWYVDGVEVHNAKTKPREEQYNSTYRVVSVLTVLHQDWLNGKEYKCKVSNKALPAPIEKTISKAKGQPREPQVYTLPPSRDELTKNQVSLTCLVEGFYPSDIAVEWESNGQPENNYKTTPLVLDSDGSFFLYSKLTVDKSRWQQGNVFSCSVMHEALHNHYTQKSLSLSPGK
B6: ch-mAb 2B6 MgFc51/60 (Q419H, P396L with D270E) (antibody)
chain: ASTKGPSVFPLAPSSKSTSGGTAALGCLVKDYFPEPVTVSWNSGALTSGVHTFPAVLQSSGLYSLSSVVTVPSSSLGTQTYICNVNHKPSNTKVDKKVEPKSCDKTHTCPPCPAPELLGGPSVFLFPPKPKDTLMISRTPEVTCVVVDVSHEEPEVKFNWYVDGVEVHNAKTKPREEQYNSTYRVVSVLTVLHQDWLNGKEYKCKVSNKALPAPIEKTISKAKGQPREPQVYTLPPSRDELTKNQVSLTCLVKGFYPSDIAVEWESNGQPENNYKTTPLVLDSDGSFFLYSKLTVDKSRWQHGNVFSCSVMHEALHNHYTQKSLSLSPGK

How the values were obtained:
[1] = target: T5, FcγRIIIA (UniProt P08637 17-208, limits assumed); assay: ELISA
T5 construct: also called CD16A
T5 sequence (P08637 17-208 limits assumed): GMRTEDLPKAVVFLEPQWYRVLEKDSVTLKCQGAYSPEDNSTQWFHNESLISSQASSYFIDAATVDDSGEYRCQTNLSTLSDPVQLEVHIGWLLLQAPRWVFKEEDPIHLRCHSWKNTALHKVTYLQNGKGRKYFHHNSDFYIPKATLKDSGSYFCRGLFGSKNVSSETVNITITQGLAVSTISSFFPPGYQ

[2] = target: T6, soluble monomeric FcγRIIIA, the extracellular region of FcγRIIIA joined to the linker-AVITAG sequence (UniProt P08637 17-208, limits assumed); assay: BIAcore
T6 construct: extracellular domain; also called FcRIIIA; FcR3A
T6 sequence (P08637 17-208 limits assumed): as above

[3] = target: T1, FcγRIIB-Fc fusion protein, soluble …; assay: BIAcore
[4] = target: T5, FcγRIIIA; assay: ELISA; remark: listed apart in the source
[5] = target: T6, soluble monomeric FcγRIIIA, the …; assay: BIAcore, antibody captured on BSA-FITC
[6] = target: T1, FcγRIIB-Fc fusion protein, soluble …; assay: ELISA of the ch4-4-20 Fc variant for FcγRIIB-Fc fusion protein, value listed beside the sensorgram
[7] = target: T5, FcγRIIIA; assay: ELISA; remark: listed apart in the source
[8] = target: T1, FcγRIIB-Fc fusion protein, soluble …; assay: BIAcore, ch4-4-20
[9] = target: T2, 2bfcagl (FcγRIIB-Fc); assay: BIAcore, 2B6 captured by soluble CD32B
[10] = target: T7, FcγRIIIA 158V, soluble (UniProt P08637 17-208, limits assumed); assay: BIAcore, 2B6 captured by soluble CD32B
T7 construct: also called 3aV158
T7 sequence (P08637 17-208 F176V limits assumed): as the sequence (P08637 17-208 limits assumed) above, with F160V counted along it

[11] = target: T3, 2aH131Fcagl (FcγRIIA 131H-Fc); assay: BIAcore, 2B6 captured by soluble CD32B
[12] = target: T4, 2aR131Fcagl (FcγRIIA 131R-Fc); assay: BIAcore, 2B6 captured by soluble CD32B
[13] = target: T8, FcγRIIIA 158F, soluble (UniProt P08637 17-208, limits assumed); assay: BIAcore, 2B6 captured by soluble CD32B
T8 construct: also called 3aF158
T8 sequence (P08637 17-208 limits assumed): as the sequence (P08637 17-208 limits assumed) above

[14] = target: T9, C1q; assay: BIAcore, 2B6 captured by soluble CD32B
T9 construct: also called first component of the complement cascade
T9 sequence (P02745 23-245, chain 1 of 3): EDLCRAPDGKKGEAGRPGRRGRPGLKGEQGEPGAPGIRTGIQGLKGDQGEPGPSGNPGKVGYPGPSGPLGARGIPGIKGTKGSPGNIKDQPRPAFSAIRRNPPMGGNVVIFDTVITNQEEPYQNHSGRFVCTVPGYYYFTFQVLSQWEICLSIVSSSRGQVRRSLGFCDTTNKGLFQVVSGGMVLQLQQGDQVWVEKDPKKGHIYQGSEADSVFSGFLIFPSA
T9 sequence (P02746 28-253, chain 2 of 3, further chain): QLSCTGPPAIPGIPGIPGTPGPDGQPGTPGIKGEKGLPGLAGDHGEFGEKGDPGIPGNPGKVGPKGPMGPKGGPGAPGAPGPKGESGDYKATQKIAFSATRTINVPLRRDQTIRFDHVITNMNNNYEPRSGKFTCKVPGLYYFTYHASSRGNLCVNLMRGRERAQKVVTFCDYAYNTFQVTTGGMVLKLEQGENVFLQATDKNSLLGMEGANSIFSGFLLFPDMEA
T9 sequence (P02747 29-245, chain 3 of 3, further chain): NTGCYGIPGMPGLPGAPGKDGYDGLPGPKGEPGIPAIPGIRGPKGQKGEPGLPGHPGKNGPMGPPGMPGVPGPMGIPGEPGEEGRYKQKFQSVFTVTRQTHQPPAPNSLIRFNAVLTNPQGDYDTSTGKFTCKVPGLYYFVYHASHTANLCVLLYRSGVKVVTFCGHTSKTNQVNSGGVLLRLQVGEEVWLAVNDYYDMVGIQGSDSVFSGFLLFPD

Binder | ELISA, OD [4] [OD] | Kd [5] [nM] | koff [5] [s⁻¹] | kon [5] [M⁻¹ s⁻¹] | ELISA, OD [6] [OD] | koff [9] [s⁻¹] | koff [10] [s⁻¹] | koff [11] [s⁻¹] | koff [12] [s⁻¹] | koff [13] [s⁻¹] | koff [14] [s⁻¹] | other results
B1 | 1.1 | 75.4 | 0.1 | 1.37e+06 | 0.13 | – | – | – | – | – | – | ELISA IIIA binding vs wt [1]: 3 X; Kd [2]: 75.4 nM; koff [2]: 0.1 s⁻¹; Kd [3]: 95.6 nM; koff [3]: 0.089 s⁻¹; ELISA binding increase vs wt [7]: 3 x
B2 | 1.25 | 70.2 | 0.105 | 1.43e+06 | 0.1 | – | – | – | – | – | – | –
B3 | – | – | – | – | – | – | – | – | – | – | – | Koff WT/Mut [8]: 0.67
B4 | – | – | – | – | – | 0.094 | 0.084 | 0.034 | 0.127 | 0.238 | – | –
B5 | – | – | – | – | – | 0.078 | 0.105 | 0.024 | 0.095 | 0.296 | 0.107 | –
B6 | – | – | – | – | – | 0.077 | 0.112 | 0.028 | 0.089 | 0.293 | 0.079 | –

— patent US20080138349A1 (MacroGenics, published 2008)
